Experimental data from article PMC7949115, “Poly(ADP-ribose) polymerase 1 regulates mitochondrial DNA repair in an NAD-dependent manner”.
One block for each molecule: values may come before it.

What was measured:
[1] = biological target: T1, PARP1 (PARP-1);Pol gamma A (catalytic subunit);Pol gamma B deltaI4 (accessory subunit) (Homo sapiens?;Homo sapiens?;Homo sapiens?) (UniProt P09874+P54098+Q9UHN1); assay: EMSA; details: apparent; PARP1 titrated into Pol gamma (0.5 uM)-DNA (0.75 uM); no NAD+; Buffer RX: 25 mM Hepes pH 7.5, 140 mM KCl, 5 mM MgCl2, 5% glycerol, 1 mM BME; ITC at 25 C; EMSA incubated on ice then room temperature, 4-20% native PAGE in …
[2] = biological target: T1, PARP1 (PARP-1);Pol gamma A (catalytic subunit);Pol gamma B deltaI4 (accessory subunit) (Homo sapiens?;Homo sapiens?;Homo sapiens?); assay: ITC; details: Buffer RX: 25 mM Hepes pH 7.5, 140 mM KCl, 5 mM MgCl2, 5% glycerol, 1 mM BME; ITC at 25 C; EMSA incubated on ice then room temperature, 4-20% native PAGE in …
[3] = biological target: mitochondrial DNA polymerase (Pol γ) holoenzyme, heterotrimer of Pol γA and dimeric Pol γB ΔI4 (UniProt P54098); assay: ITC; PARP-1 titrated into Pol γ (5 μM) to a final 10 μM, without DNA; 25 °C; Buffer RX (25 mM Hepes pH 7.5, 140 mM KCl, 5 mM MgCl2, 5% glycerol, 1 mM BME)
[4] = biological target: PARP1 (PARP-1) (UniProt P09874 1-1014); assay: ITC; 25 C, 5 mM Mg2+, no NAD+; dH -58.4 kcal/mol; Buffer RX: 25 mM Hepes pH 7.5, 140 mM KCl, 5 mM MgCl2, 5% glycerol, 1 mM BME; ITC at 25 C; EMSA incubated on ice then room temperature, 4-20% native PAGE in Tris-glycine at 0 C; details: protein: recombinant; tags: His (Ni-NTA purified); self-annealed dumbbell, two hairpins, 3-nt gap
Chain of PARP1 (PARP-1) (P09874 whole entry): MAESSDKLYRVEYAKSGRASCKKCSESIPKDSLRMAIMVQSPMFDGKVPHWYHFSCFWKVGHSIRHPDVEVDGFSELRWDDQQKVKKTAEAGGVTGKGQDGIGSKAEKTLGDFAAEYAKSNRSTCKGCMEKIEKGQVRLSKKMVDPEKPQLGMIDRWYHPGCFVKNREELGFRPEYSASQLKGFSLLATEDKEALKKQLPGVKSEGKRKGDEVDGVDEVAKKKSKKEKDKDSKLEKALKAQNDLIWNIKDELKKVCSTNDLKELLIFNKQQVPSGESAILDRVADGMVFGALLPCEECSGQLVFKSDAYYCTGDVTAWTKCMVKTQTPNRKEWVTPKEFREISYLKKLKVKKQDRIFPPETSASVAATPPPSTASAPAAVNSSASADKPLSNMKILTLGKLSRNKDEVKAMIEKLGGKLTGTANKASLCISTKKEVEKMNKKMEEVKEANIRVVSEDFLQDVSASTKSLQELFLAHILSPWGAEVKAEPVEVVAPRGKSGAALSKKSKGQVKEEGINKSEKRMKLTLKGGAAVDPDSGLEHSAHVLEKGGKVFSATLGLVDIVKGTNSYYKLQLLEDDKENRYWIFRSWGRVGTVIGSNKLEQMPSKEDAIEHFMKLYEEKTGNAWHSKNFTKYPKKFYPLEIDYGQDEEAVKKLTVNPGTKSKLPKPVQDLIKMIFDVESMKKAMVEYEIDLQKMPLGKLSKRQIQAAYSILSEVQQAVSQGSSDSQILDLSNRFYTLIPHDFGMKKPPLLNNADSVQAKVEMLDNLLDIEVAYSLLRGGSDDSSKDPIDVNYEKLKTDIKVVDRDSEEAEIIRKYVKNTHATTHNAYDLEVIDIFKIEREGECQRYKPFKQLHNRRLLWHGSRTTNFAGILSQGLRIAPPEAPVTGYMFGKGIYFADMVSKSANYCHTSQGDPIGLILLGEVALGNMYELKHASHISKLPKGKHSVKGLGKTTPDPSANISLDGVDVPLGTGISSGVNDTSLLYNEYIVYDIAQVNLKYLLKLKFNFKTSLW

T1 sequence (P09874 whole entry, stated change not applied, chain 1 of 3): as the sequence (P09874 whole entry) above
T1 sequence (P54098 30-1239, stated change not applied, chain 2 of 3): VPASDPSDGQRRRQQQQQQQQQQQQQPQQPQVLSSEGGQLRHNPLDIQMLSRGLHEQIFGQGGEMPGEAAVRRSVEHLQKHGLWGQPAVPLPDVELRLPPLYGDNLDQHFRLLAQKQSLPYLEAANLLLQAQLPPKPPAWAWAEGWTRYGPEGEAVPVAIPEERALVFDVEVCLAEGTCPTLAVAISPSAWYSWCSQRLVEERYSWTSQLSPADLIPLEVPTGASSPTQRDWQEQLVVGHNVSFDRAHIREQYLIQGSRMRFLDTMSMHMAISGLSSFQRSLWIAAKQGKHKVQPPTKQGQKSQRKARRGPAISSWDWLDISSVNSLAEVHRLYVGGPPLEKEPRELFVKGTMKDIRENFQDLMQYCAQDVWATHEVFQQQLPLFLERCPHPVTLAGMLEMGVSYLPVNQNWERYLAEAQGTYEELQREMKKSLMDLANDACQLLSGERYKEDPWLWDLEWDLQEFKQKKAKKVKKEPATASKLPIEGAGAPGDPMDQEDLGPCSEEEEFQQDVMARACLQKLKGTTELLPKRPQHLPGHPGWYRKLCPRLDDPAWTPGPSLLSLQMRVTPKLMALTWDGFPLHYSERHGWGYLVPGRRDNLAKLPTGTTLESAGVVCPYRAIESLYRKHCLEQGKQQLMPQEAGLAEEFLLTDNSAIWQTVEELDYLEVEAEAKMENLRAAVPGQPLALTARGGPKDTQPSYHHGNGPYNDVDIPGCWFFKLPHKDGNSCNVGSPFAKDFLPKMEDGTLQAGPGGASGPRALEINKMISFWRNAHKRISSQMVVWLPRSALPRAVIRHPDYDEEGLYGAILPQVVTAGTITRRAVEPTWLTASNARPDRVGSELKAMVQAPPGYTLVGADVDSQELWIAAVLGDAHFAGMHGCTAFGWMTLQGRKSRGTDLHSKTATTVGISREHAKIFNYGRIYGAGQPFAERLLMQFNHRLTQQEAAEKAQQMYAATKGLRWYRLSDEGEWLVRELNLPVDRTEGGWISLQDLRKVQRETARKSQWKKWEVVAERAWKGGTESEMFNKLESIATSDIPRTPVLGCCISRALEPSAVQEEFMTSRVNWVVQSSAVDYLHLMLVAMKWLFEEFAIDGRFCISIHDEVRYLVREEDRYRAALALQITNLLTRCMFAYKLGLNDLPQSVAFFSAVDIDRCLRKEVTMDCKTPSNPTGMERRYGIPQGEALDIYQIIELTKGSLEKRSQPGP
T1 sequence (Q9UHN1 whole entry, stated change not applied, chain 3 of 3): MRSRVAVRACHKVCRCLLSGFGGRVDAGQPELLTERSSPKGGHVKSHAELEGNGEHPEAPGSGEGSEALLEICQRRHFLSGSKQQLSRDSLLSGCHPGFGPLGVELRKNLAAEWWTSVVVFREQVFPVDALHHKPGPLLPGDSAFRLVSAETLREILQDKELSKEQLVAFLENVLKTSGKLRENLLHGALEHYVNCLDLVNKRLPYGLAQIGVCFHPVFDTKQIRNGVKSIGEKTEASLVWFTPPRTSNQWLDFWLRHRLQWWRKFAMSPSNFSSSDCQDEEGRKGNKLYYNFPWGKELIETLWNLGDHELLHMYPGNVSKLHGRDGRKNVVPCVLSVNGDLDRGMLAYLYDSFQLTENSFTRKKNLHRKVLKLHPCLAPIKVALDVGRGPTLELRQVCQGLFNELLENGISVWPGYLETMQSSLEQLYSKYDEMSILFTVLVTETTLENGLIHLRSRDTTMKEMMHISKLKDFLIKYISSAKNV

Molecule: CTTTTCTGGTGAAAAGCTCGTCGGCAGCGCTTGAGCAGCGGCAGCTGGTGCTGCCGCTGCTCAAGCGCTGCCGAC [d3ntgap (75-nt dumbbell with 3-nt gap)]
Kd [1]: 600 nM
Kd [2]: 111 nM

Kd [3]: > 10 µM
Molecule: Poly(ADP-ribose) polymerase 1 (from UniProt P09874 1-1014) (enzyme)

B1: d3ntgap (75-nt dumbbell with 3-nt gap) (structured_DNA)
DNA: CTTTTCTGGTGAAAAGCTCGTCGGCAGCGCTTGAGCAGCGGCAGCTGGTGCTGCCGCTGCTCAAGCGCTGCCGAC
Kd [4]: 36.4 nM
